According to IntAct's records for PubMed 17699755:

Target: hfr1_arath HFR1 (UniProt Q9FE22)
Sequence (Q9FE22 whole entry): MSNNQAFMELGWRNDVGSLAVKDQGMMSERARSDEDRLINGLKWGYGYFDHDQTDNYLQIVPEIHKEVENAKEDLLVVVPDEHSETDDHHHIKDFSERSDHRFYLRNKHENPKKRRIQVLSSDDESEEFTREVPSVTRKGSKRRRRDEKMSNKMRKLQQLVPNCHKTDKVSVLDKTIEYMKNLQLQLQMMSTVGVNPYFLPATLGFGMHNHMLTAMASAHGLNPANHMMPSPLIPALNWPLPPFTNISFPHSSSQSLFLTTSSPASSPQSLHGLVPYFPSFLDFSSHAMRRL

Sequence of Transcription factor LAF1 (Arabidopsis thaliana (Mouse-ear cress)), Q9M0K4 R97A (Q9M0K4 whole entry R97A): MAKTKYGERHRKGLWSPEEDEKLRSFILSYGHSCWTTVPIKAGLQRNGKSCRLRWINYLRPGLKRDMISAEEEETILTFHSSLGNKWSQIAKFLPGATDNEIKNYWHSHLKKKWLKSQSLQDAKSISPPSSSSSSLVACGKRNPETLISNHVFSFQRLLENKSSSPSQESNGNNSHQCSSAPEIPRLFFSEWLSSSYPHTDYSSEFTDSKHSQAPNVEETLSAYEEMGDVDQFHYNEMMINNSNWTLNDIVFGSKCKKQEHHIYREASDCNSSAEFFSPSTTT

Substance	effect of a mutation on the interaction
Transcription factor LAF1 (Arabidopsis thaliana (Mouse-ear cress)), Q9M0K4 R97A	disrupting interaction
Transcription factor LAF1 (Arabidopsis thaliana (Mouse-ear cress)), Q9M0K4 W87A	decreasing interaction
